{"source": "patent US20170224836A1", "about": "(Novartis, published 2017)", "binders": {"B1": {"name": "NOV0710 (antibody, human IgG1, kappa, V domains shown)", "VH": "QVQLLESGGGLVQPGGSLRLSCAASGFTFSSYAMSWVRQAPGKGLEWVSVIRSSGSSTYYADSVKGRFTISRDNSKNTLYLQMNSLRAEDTAVYYCARGGGYFDYWGQGTLVTVSS", "VL": "DIQMTQSPSSLSASVGDRVTITCRASQSISLWLNWYQQKPGKAPKLLIYAASTLQSGVPSRFSGSGSGTDFTLTISSLQPEDFATYYCQQYYTSPYTFGQGTKVEIKR"}}, "key": {"[1]": {"biological_target": "T1, CDH6 wt (human, UniProt P55285 54-615)", "T1 sequence": "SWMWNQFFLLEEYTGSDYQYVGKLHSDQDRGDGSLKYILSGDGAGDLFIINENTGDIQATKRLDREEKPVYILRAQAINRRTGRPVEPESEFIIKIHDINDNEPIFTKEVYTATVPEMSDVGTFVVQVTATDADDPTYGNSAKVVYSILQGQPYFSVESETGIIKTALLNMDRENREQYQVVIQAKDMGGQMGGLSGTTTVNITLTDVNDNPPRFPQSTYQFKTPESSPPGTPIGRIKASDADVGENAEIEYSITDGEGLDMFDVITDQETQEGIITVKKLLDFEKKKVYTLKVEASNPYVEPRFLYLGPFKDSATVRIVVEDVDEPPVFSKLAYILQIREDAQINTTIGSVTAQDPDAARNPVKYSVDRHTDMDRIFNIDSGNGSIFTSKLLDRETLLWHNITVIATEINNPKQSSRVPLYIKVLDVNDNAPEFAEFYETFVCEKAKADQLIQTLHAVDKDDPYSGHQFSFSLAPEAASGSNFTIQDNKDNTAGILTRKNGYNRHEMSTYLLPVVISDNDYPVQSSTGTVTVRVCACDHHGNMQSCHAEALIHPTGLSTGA", "experiment": "ELISA on coated CDH6-wt"}, "[2]": {"biological_target": "T2, hCDH6aa54-615 APPavi (human, UniProt P55285 54-615)", "T2 sequence": "T1 sequence", "experiment": "SPR binning"}, "[3]": {"biological_target": "T2, hCDH6aa54-615 APPavi", "experiment": "SPR binning", "remark": "listed apart in the source"}, "[4]": {"biological_target": "T2, hCDH6aa54-615 APPavi", "experiment": "SPR binning", "remark": "listed apart in the source"}, "[5]": {"biological_target": "T2, hCDH6aa54-615 APPavi", "experiment": "SPR binning", "remark": "listed apart in the source"}, "[6]": {"biological_target": "T2, hCDH6aa54-615 APPavi", "experiment": "SPR binning", "remark": "listed apart in the source"}, "[7]": {"biological_target": "T2, hCDH6aa54-615 APPavi", "experiment": "SPR binning", "remark": "listed apart in the source"}, "[8]": {"biological_target": "T2, hCDH6aa54-615 APPavi", "experiment": "SPR binning", "remark": "listed apart in the source"}}, "note": "Read-outs that look alike come from different tables or passages of the source.", "data": [{"binder": "B1", "values": [{"measurement": "EC50 (read off the curve)", "setting": "[1]", "result": "~200", "unit": "nM"}, {"measurement": "response of secondary antibody on primary antibody-CDH6 complex", "setting": "[2]", "result": 8.84}, {"measurement": "response of secondary antibody on primary antibody-CDH6 complex", "setting": "[3]", "result": -3.56}, {"measurement": "response of secondary antibody on primary antibody-CDH6 complex", "setting": "[4]", "result": -2.17}, {"measurement": "response of secondary antibody on primary antibody-CDH6 complex", "setting": "[5]", "result": 21.9}, {"measurement": "response of secondary antibody on primary antibody-CDH6 complex", "setting": "[6]", "result": 15}, {"measurement": "response of secondary antibody on primary antibody-CDH6 complex", "setting": "[7]", "result": 32.7}, {"measurement": "response of secondary antibody on primary antibody-CDH6 complex", "setting": "[8]", "result": 10.6}]}]}
